T1: biotinylated HIF-1α ODD peptide, Q16665
T1 chain: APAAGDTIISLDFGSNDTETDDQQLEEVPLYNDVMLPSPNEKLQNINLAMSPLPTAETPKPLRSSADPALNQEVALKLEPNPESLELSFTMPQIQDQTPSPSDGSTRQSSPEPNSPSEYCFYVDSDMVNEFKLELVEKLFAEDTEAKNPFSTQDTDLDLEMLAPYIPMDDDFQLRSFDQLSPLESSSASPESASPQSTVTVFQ


Biological target: T1, biotinylated HIF-1α ODD peptide, Q16665

Protein | ^35S-pVHL pulldown enzyme assay activity (Pro564 hydroxylation of the peptide)
Human HPH-2 (protein) MANDSGGPGGPSPSERDRQYCELCGKMENLLRCSRCRSSFYCCKEHQRQDWKKHKLVCQGSEGALGHGVGPHQHSGPAPPAAVPPPRAGAREPRKAAARRDNASGDAAKGKVKAKPPADPAAAASPCRAAAGGQGSAVAAEAEPGKEEPPARSSLFQEKANLYPPSNTPGDALSPGGGLRPNGQTKPLPALKLALEYIVPCMNKHGICVVDDFLGKETGQQIGDEVRALHDTGKFTDGQLVSQKSDSSKDIRGDKITWIEGKEPGCETIGLLMSSMDDLIRHCNGKLGSYKINGRTKAMVACYPGNGTGYVRHVDNPNGDGRCVTCIYYLNKDWDAKVSGGILRIFPEGKAQFADIEPKFDRLLFFWSDRRNPHEVQPAYATRYAITVWYFDADERARAKVKYLTGEKGVRVELNKPSDSVGKDVF | the ^35S-pVHL pulldown enzyme assay activity of each HPH homologue was dependent on 2-OG, Fe(II), and ascorbate
Human HPH-1 (protein) MPLGHIMRLDLEKIALEYIVPCLHEVGFCYLDNFLGEVVGDCVLERVKQLHCTGALRDGQLAGPRAGVSKRHLRGDQITWIGGNEEGCEAISFLLSLIDRLVLYCGSRLGKYYVKERSKAMVACYPGNGTGYVRHVDNPNGDGRCITCIYYLNKNWDAKLHGGILRIFPEGKSFIADVEPIFDRLLFFWSDRRNPHEVQPSYATRYAMTVWYFDAEERAEAKKKFRNLTRKTESALTED | As exemplified by HPH-1, the ^35S-pVHL pulldown enzyme assay activity of each HPH homologue was dependent on 2-OG, Fe(II), and ascorbate

From patent US20080045463
